Here are results for eleven molecules from patent EP4786495A1 (Nanjing Leads Biolabs Co., Ltd., dated 2026).

A word on the Kd: it is the free concentration of one partner at which half of the binding sites on the other are occupied at equilibrium, for simple one-to-one binding. Lower therefore signals a tighter complex. The term koff denotes the rate constant with which the complex falls apart. Higher therefore signals a short-lived complex. The kon is the second-order rate constant of association. Low values mean slower complex formation, high ones faster complex formation.

For experiment [1], the target named is human BAFF protein (ACRO Biosystems, Cat. No.: BAF-H52D4) (human, UniProt Q9Y275 134-285). Briefly: BLI Octet RED96e, protein captured on AHC sensor, BAFF 100 nM in solution. For orientation: In BLI a coated tip is dipped into the sample, and binding shifts an interference pattern.
Chain of human BAFF protein (ACRO Biosystems, Cat. No.: BAF-H52D4) (Q9Y275 134-285 limits assumed): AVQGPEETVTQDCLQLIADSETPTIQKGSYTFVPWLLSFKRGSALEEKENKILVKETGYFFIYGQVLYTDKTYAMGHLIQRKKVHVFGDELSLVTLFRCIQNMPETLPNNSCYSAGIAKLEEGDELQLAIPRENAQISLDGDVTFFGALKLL
Experiment [2] addresses T1, human APRIL protein (ACRO Biosystems, Cat. No.: APL-H52D1) (human, UniProt O75888 115-250, limits assumed).
T1 sequence (looked up): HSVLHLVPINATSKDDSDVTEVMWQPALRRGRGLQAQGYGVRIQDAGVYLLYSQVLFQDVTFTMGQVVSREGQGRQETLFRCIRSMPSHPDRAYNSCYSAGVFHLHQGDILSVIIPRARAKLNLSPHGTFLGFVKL
Briefly: BLI Octet RED96e, protein captured on AHC sensor, APRIL 100 nM in solution.

Experiment [3] concerns the target T2, human BDCA2 protein (Kactus Biosystems, Cat# BCA-HM402) (human, UniProt Q8WTT0 45-213).
T2 construct: also called Human BDCA2-His
T2 sequence: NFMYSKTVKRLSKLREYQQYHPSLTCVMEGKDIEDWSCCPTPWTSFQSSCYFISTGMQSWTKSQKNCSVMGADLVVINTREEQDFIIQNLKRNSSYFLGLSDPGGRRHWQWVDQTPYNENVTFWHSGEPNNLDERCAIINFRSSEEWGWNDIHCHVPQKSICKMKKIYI
Put plainly: BLI Octet RED96e, protein captured on AHC sensor, BDCA2 100 nM in solution.

In experiment [4] the target is T2, human BDCA2 protein (Kactus Biosystems, …). Put plainly: BLI Octet RED96e, antibody captured on AHC sensor, BDCA2 100 nM in solution.

B1: bispecific fusion protein BI-9D2-3GS4 (bispecific antibody, human IgG1, kappa)
heavy: not shown
light: ETVLTQSPATLSLSPGERATLSCRASSSVSYMYWFQQKPGQAPRLLIYSTSNLASGIPARFSGSGSGTDYTLTISSLEPEDFAVYYCQQRRNYPHTFGGGTKVEIKRTVAAPSVFIFPPSDEQLKSGTASVVCLLNNFYPREAKVQWKVDNALQSGNSQESVTEQDSKDSTYSLSSTLTLSKADYEKHKVYACEVTHQGLSSPVTKSFNRGEC
For B1, in experiment [1], the Kd was below 0.001 nM, the “Response (nm)” value was determined as 0.34 nm, the koff is below 1e-07 s⁻¹ and the kon amounted to 422000 M⁻¹ s⁻¹. For the same molecule, in experiment [2], the Kd came out at 0.616 nM, the “Response (nm)” value worked out at 0.251 nm, the koff amounted to 0.000582 s⁻¹ and the kon stood at 944000 M⁻¹ s⁻¹. Moreover, in experiment [3], the Kd is 0.234 nM, the “Response (nm)” value came to 0.551 nm, the koff is 3.58e-05 s⁻¹ and the kon turned out to be 153000 M⁻¹ s⁻¹.

B2: bispecific fusion protein BI-9ND2-4GS4 (bispecific antibody, human IgG1, kappa)
heavy: not shown
light: ETVLTQSPATLSLSPGERATLSCRASSSVSYMYWFQQKPGQAPRLLIYSTSNLASGIPARFSGSGSGTDYTLTISSLEPEDFAVYYCQQRRNYPHTFGGGTKVEIKRTVAAPSVFIFPPSDEQLKSGTASVVCLLNNFYPREAKVQWKVDNALQSGNSQESVTEQDSKDSTYSLSSTLTLSKADYEKHKVYACEVTHQGLSSPVTKSFNRGEC
For the molecule B2, in experiment [1], the Kd was below 0.001 nM, the “Response (nm)” value came to 0.468 nm, the koff was below 1e-07 s⁻¹ and the kon came out at 522000 M⁻¹ s⁻¹. Further, in experiment [2], the Kd is 0.0667 nM, the “Response (nm)” value was 0.298 nm, the koff came out at 7.79e-05 s⁻¹ and the kon was 1.17e+06 M⁻¹ s⁻¹. In addition, in experiment [3], the Kd was below 0.001 nM, the “Response (nm)” value was found to be 0.484 nm, the koff was below 1e-07 s⁻¹ and the kon was 125000 M⁻¹ s⁻¹.

B3: bispecific fusion protein BI-9D2-2GS4 (bispecific antibody, human IgG1, kappa)
heavy: not shown
light: ETVLTQSPATLSLSPGERATLSCRASSSVSYMYWFQQKPGQAPRLLIYSTSNLASGIPARFSGSGSGTDYTLTISSLEPEDFAVYYCQQRRNYPHTFGGGTKVEIKRTVAAPSVFIFPPSDEQLKSGTASVVCLLNNFYPREAKVQWKVDNALQSGNSQESVTEQDSKDSTYSLSSTLTLSKADYEKHKVYACEVTHQGLSSPVTKSFNRGEC
B3: in experiment [1], the Kd is below 0.001 nM, the “Response (nm)” value was 0.302 nm, the koff is below 1e-07 s⁻¹ and the kon came to 412000 M⁻¹ s⁻¹. Moreover, in experiment [2], the Kd amounted to 0.391 nM, the “Response (nm)” value was found to be 0.242 nm, the koff turned out to be 0.000339 s⁻¹ and the kon turned out to be 866000 M⁻¹ s⁻¹. For the same molecule, in experiment [3], the Kd is below 0.001 nM, the “Response (nm)” value worked out at 0.56 nm, the off-rate (koff) was below 1e-07 s⁻¹ and the kon turned out to be 151000 M⁻¹ s⁻¹.

B4: bispecific fusion protein BI-9D2-3G4S-8S (bispecific antibody, human IgG1, kappa)
heavy: not shown
light: ETVLTQSPATLSLSPGERATLSCRASSSVSYMYWFQQKPGQAPRLLIYSTSNLASGIPARFSGSGSGTDYTLTISSLEPEDFAVYYCQQRRNYPHTFGGGTKVEIKRTVAAPSVFIFPPSDEQLKSGTASVVCLLNNFYPREAKVQWKVDNALQSGNSQESVTEQDSKDSTYSLSSTLTLSKADYEKHKVYACEVTHQGLSSPVTKSFNRGEC
Turning to B4, in experiment [1], the Kd was below 0.001 nM, the “Response (nm)” value came out at 0.394 nm, the koff was below 1e-07 s⁻¹ and the kon was 402000 M⁻¹ s⁻¹. In experiment [2], the Kd stood at 0.166 nM, the “Response (nm)” value is 0.29 nm, the koff stood at 0.000134 s⁻¹ and the kon came out at 808000 M⁻¹ s⁻¹. Moreover, in experiment [3], the Kd was below 0.001 nM, the “Response (nm)” value came to 0.476 nm, the koff was below 1e-07 s⁻¹ and the kon worked out at 154000 M⁻¹ s⁻¹.

B5: bispecific fusion protein BI-9D2-3G4S-4S (bispecific antibody, human IgG1, kappa)
heavy: not shown
light: ETVLTQSPATLSLSPGERATLSCRASSSVSYMYWFQQKPGQAPRLLIYSTSNLASGIPARFSGSGSGTDYTLTISSLEPEDFAVYYCQQRRNYPHTFGGGTKVEIKRTVAAPSVFIFPPSDEQLKSGTASVVCLLNNFYPREAKVQWKVDNALQSGNSQESVTEQDSKDSTYSLSSTLTLSKADYEKHKVYACEVTHQGLSSPVTKSFNRGEC
Take B5: in experiment [1], the Kd was below 0.001 nM, the “Response (nm)” value was found to be 0.358 nm, the koff was below 1e-07 s⁻¹ and the kon worked out at 382000 M⁻¹ s⁻¹. For the same molecule, in experiment [2], the affinity, expressed as Kd, was 0.528 nM; the “Response (nm)” value is 0.285 nm; the koff is 0.000435 s⁻¹; the kon turned out to be 824000 M⁻¹ s⁻¹. In experiment [3], the Kd is below 0.001 nM, the “Response (nm)” value came out at 0.457 nm, the koff was below 1e-07 s⁻¹ and the kon stood at 155000 M⁻¹ s⁻¹.

B6: bispecific fusion protein BI-9D2-1GS4 (bispecific antibody, human IgG1, kappa)
heavy: not shown
light: ETVLTQSPATLSLSPGERATLSCRASSSVSYMYWFQQKPGQAPRLLIYSTSNLASGIPARFSGSGSGTDYTLTISSLEPEDFAVYYCQQRRNYPHTFGGGTKVEIKRTVAAPSVFIFPPSDEQLKSGTASVVCLLNNFYPREAKVQWKVDNALQSGNSQESVTEQDSKDSTYSLSSTLTLSKADYEKHKVYACEVTHQGLSSPVTKSFNRGEC
Turning to B6, in experiment [1], the Kd is below 0.001 nM, the “Response (nm)” value worked out at 0.299 nm, the koff is below 1e-07 s⁻¹ and the kon came out at 400000 M⁻¹ s⁻¹. In experiment [2], binding was put at a Kd of 0.724 nM, the “Response (nm)” value stood at 0.261 nm, the koff amounted to 0.000589 s⁻¹ and the kon amounted to 813000 M⁻¹ s⁻¹. In experiment [3], the Kd is below 0.001 nM, the “Response (nm)” value was 0.591 nm, the koff is below 1e-07 s⁻¹ and the kon was 149000 M⁻¹ s⁻¹.

B7: bispecific fusion protein BI-9ND2-2GS4 (bispecific antibody, human IgG1, kappa)
heavy: not shown
light: ETVLTQSPATLSLSPGERATLSCRASSSVSYMYWFQQKPGQAPRLLIYSTSNLASGIPARFSGSGSGTDYTLTISSLEPEDFAVYYCQQRRNYPHTFGGGTKVEIKRTVAAPSVFIFPPSDEQLKSGTASVVCLLNNFYPREAKVQWKVDNALQSGNSQESVTEQDSKDSTYSLSSTLTLSKADYEKHKVYACEVTHQGLSSPVTKSFNRGEC
With B7, in experiment [1], the Kd is below 0.001 nM, the “Response (nm)” value came out at 0.492 nm, the koff was below 1e-07 s⁻¹ and the association rate constant (kon) was 456000 M⁻¹ s⁻¹. Moreover, in experiment [2], binding was put at a Kd of 0.275 nM, the “Response (nm)” value is 0.339 nm, the koff amounted to 0.000257 s⁻¹ and the kon worked out at 937000 M⁻¹ s⁻¹. In addition, in experiment [3], the Kd is below 0.001 nM, the “Response (nm)” value was found to be 0.466 nm, the koff was below 1e-07 s⁻¹ and the kon is 115000 M⁻¹ s⁻¹.

B8: bispecific fusion protein BI-9ND2-3GS4 (bispecific antibody, human IgG1, kappa)
heavy: not shown
light: ETVLTQSPATLSLSPGERATLSCRASSSVSYMYWFQQKPGQAPRLLIYSTSNLASGIPARFSGSGSGTDYTLTISSLEPEDFAVYYCQQRRNYPHTFGGGTKVEIKRTVAAPSVFIFPPSDEQLKSGTASVVCLLNNFYPREAKVQWKVDNALQSGNSQESVTEQDSKDSTYSLSSTLTLSKADYEKHKVYACEVTHQGLSSPVTKSFNRGEC
Take B8: in experiment [1], the Kd is below 0.001 nM, the “Response (nm)” value is 0.487 nm, the koff is below 1e-07 s⁻¹ and the kon worked out at 489000 M⁻¹ s⁻¹. In experiment [2], the Kd came out at 0.0944 nM, the “Response (nm)” value is 0.327 nm, the koff is 9.99e-05 s⁻¹ and the kon stood at 1.06e+06 M⁻¹ s⁻¹. For the same molecule, in experiment [3], the Kd was below 0.001 nM, the “Response (nm)” value was determined as 0.473 nm, the koff was below 1e-07 s⁻¹ and the kon stood at 117000 M⁻¹ s⁻¹.

B9: anti-BDCA2 humanized antibody Hu37F2C6-8 (antibody, human IgG1, kappa, V domains shown)
VH: QVQLVQSGAEVKKPGASVKVSCKASGYTFTDFAVHWVRQAPGQRLEWMGLIGTSSGSTNYNQKFQGRVTMTVDKSANTAYMELSSLRSEDTAVYYCARNGYYVGYYALDYWGQGTTVTVSS
VL: ETVLTQSPATLSLSPGERATLSCRASSSVSYMYWFQQKPGQAPRLLIYSTSNLASGIPARFSGSGSGTDYTLTISSLEPEDFAVYYCQQRRNYPHTFGGGTKVEIKR
As to B9, in experiment [4], the Kd was below 0.001 nM, the off-rate constant (koff) is below 1e-07 s⁻¹ and the kon was 113000 M⁻¹ s⁻¹.

B10: anti-BDCA2 humanized antibody Hu37F2C6-9 (antibody, human IgG1, kappa, V domains shown)
VH: QVQLVQSGAEVKKPGASVKVSCKASGYTFTDFAVHWVRQAPGQRLEWMGLIGTSSGSTNYNQKFQGRATMTVDKSANTAYMELSSLRSEDTAVYYCARNGYYVGYYALDYWGQGTTVTVSS
VL: ETVLTQSPATLSLSPGERATLSCRASSSVSYMYWFQQKPGQAPRLLIYSTSNLASGIPARFSGSGSGTDYTLTISSLEPEDFAVYYCQQRRNYPHTFGGGTKVEIKR
notes: also called humanized 37F2C6-9
Take B10: in experiment [4], the Kd was below 0.001 nM, the koff is below 1e-07 s⁻¹ and the kon stood at 121000 M⁻¹ s⁻¹.

B11: control antibody litifilimab analogue (antibody, human IgG1, kappa, V domains shown)
VH: DVQLVESGGGLVKPGGSLRLSCAASGFTFSTYTMSWVRQAPGKGLEWVATISPGDSFGYYYPDSVQGRFTISRDNAKNSLYLQMNSLRAEDTAVYYCTRDIYYNYGAWFAYWGQGTLVTVSS
VL: DIQLTQSPSSLSASVGDRVTITCKASQSVDYDGDSYMNWYQQKPGKAPKLLIYAASTLESGVPSRFSGSGSGTDFTLTISSLQPEDFATYYCQQANEDPRTFGQGTKVEIKR
notes: Anti-BDCA2 control antibody expressed in ExpiCHO-S cells
For B11, in experiment [1], the Kd was below 0.001 nM, the “Response (nm)” value was found to be 0.0284 nm, the koff was below 1e-07 s⁻¹ and the on-rate (kon) was found to be 300000 M⁻¹ s⁻¹. Also, in experiment [2], the Kd was 6.5 nM, the “Response (nm)” value came to 0.296 nm, the koff amounted to 0.000643 s⁻¹ and the kon turned out to be 99000 M⁻¹ s⁻¹. Further, in experiment [3], the Kd is below 0.001 nM, the “Response (nm)” value worked out at 0.444 nm, the off-rate (koff) was below 1e-07 s⁻¹ and the kon was 172000 M⁻¹ s⁻¹.
